Assay results as given in publication PMC4402694, “A non-canonical mechanism for Crm1-export cargo complex assembly” (eLife, 2015).

Experiments:
Details in all cases: both partners purified
His6-Ran = molecular target: T1, His6-Ran (yeast (S. cerevisiae), UniProt P32835 1-219); assay: pull-down; GST fusion immobilised on GSH-Sepharose, incubated with 2 µM His6-Ran loaded with GTP, 1 hr at 4°C
T1 construct: Gsp1 (yeast Ran), wild type; loaded with GTP or with GDP before the assay; the two loadings are two assays; also called His6-Gsp1 (Ran) WT; RanGTP; not shown: His6, N-terminal, kept

His6-Ran^QLGTP [1] = molecular target: T2, His6-Ran^QLGTP (yeast (S. cerevisiae), UniProt P32835 1-219, Gsp1Q71L); assay: pull-down; GST fusion immobilised on GSH-Sepharose in PBSKMT, incubated with one purified protein (2 µM His6-Ran variant, or 0.5 µM Slx9 or Slx9-1) for 1 hr at 4°C, competing E. coli lysates present; Coomassie or Western
T2 construct: Gsp1 (yeast Ran), GTP-stabilized mutant Q71L, equivalent to human RanQ69L; also called Gsp1Q71L; RanGTP; not shown: His6, N-terminal, kept

Crm1-His6 = Crm1-His6 (yeast (S. cerevisiae), UniProt P30822 1-1084); assay: pull-down; trimeric export complex formation: GST fusion immobilised on GSH-Sepharose, incubated with 2 µM His6-Ran^QLGTP and 50 nM Crm1-His6 together; competing E. coli lysates present; Coomassie or Western
His6-Ran^QLGTP [2] = molecular target: T2, His6-Ran^QLGTP; assay: as above

| Binder | binding result (His6-Ran) | binding result (His6-Ran^QLGTP [1]) | binding result (Crm1-His6) | binding result (His6-Ran^QLGTP [2]) |
| --- | --- | --- | --- | --- |
| GST-Slx9 (natural protein, yeast (S. cerevisiae), UniProt P53251 1-210, looked up) MVAKKRNTLRSKVSARNSQNFGPDVANNGILDESYDIESDPRAFLHQPKETKKEKLLNRQNTFLSNLKGKSTLNDGIAANFDGISKSSIRRRKRKLREELKPRMQDLLTSLEQEKDLRGIIENSSKDMNNDDDIDMDSKIRFVDTKEMNLKKIEPGSVRIKKNQPNIRNQKGAKALAANETARFNQVLTNQDFQKNPFGALREVIKLQKQ | binds | binds | – | – |
| GST-Ssb1C (domain or fragment, yeast (S. cerevisiae), UniProt P11484 524-613, looked up) NQAEEFKAADEAFAKKHEARQRLESYVASIEQTVTDPVLSSKLKRGSKSKIEAALSDALAALQIEDPSADELRKAEVGLKRVVTKAMSSR | – | – | binds | binds |
